Reference: patent publication US5686073
One block for each molecule: values may come before it.

Experiments:
[1] = biological target: 50 kDa dystrophin-associated glycoprotein (rabbit); test: co-immunoprecipitation with the 50 kDa glycoprotein on IVD31-Sepharose from untreated complex
dystrophin (rabbit) [2] = test: co-immunoprecipitation with dystrophin on XIXC2-Sepharose from untreated complex
[3] = biological target: 50 kDa dystrophin-associated glycoprotein (rabbit); test: co-immunoprecipitation with the 50 kDa glycoprotein on IVD31-Sepharose from alkaline-treated complex
dystrophin (rabbit) [4] = test: co-immunoprecipitation with dystrophin on XIXC2-Sepharose from alkaline-treated complex

Molecule: 156 kDa dystrophin-associated glycoprotein (from UniProt Q28685)
- percent immunoprecipitated (dystrophin (rabbit) [2]): 63%
- percent immunoprecipitated [1]: 85%

Molecule: 35 kDa dystrophin-associated glycoprotein
- percent immunoprecipitated (dystrophin (rabbit) [2]): 96%
- percent immunoprecipitated [1]: 96%
- percent immunoprecipitated [3]: 96%

Molecule: 43 kDa dystrophin-associated glycoprotein (from UniProt Q28685)
- percent immunoprecipitated (dystrophin (rabbit) [2]): 96%
- percent immunoprecipitated [1]: 96%
- percent immunoprecipitated [3]: 96%

B1: 50 kDa dystrophin-associated glycoprotein (protein)
chain: GPGGTEAQQTTLYPLVGRVFVHTLEPASFLHLPEHAAPATIPVTYHAHLQGHPDLPRWLRYTQRSPHHPGFLYGAATPEDRGRQVIEVTAYNRDSFDTAGQSLVLLIRDPEGSPLPYQTEFLVRSHDVEEVLPPTPASHFLTALAGLWEPGELKLLNITSALDRGGRVPLPIGGQKEGVYIKVGSASPFSTCLKMVASPDSHARCARGQPPLLSCYDTLAPHFRVDWCNVSLVDTSVPEPVDEVPTPGDGILEHDPFFCPPTEATARDFLADALVTLLVPLLVALLLALLLAYIMCCRREGRLKRDLATSDIQMVHHCTIHENTEELRQMAASREVPRPLFPLPMFNVRTGERMPPRVDSAQVPLILDQH
- percent immunoprecipitated (dystrophin (rabbit) [2]): 96%

Now from value to molecule:

- percent immunoprecipitated [1]: 99%
Molecule: dystrophin

- percent immunoprecipitated (dystrophin (rabbit) [2]): 96%
- percent immunoprecipitated (dystrophin (rabbit) [4]): 51%
- percent immunoprecipitated [1]: 96%
Molecule: 59 kDa dystrophin-associated protein
